Measured values taken from patent US20050271651A1, “Inhibition of bright function as a treatment for excessive immunoglobulin production” (Oklahoma Medical Research Foundation, published 2005).

T1: mouse Bright, native (untagged) wild-type (mouse) (UniProt Q62431)
T1 sequence (looked up): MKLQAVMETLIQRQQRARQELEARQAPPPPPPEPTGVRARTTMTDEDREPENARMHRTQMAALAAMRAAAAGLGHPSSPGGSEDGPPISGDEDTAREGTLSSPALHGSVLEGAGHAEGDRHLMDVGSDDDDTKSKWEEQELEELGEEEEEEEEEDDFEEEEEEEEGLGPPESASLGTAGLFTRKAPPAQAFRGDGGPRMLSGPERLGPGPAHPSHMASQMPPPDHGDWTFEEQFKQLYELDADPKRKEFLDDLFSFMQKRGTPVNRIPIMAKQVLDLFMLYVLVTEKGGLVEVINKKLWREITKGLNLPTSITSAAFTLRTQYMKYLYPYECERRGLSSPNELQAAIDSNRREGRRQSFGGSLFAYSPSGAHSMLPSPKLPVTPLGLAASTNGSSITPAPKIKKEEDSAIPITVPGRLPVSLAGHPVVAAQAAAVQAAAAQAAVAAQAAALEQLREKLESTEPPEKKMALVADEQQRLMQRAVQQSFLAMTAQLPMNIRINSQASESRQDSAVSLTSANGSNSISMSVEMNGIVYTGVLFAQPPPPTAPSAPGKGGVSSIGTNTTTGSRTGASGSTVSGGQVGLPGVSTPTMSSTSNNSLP

B1: mouse Bright, native (untagged) wild-type (other, UniProt Q62431 1-601, looked up)
chain: MKLQAVMETLIQRQQRARQELEARQAPPPPPPEPTGVRARTTMTDEDREPENARMHRTQMAALAAMRAAAAGLGHPSSPGGSEDGPPISGDEDTAREGTLSSPALHGSVLEGAGHAEGDRHLMDVGSDDDDTKSKWEEQELEELGEEEEEEEEEDDFEEEEEEEEGLGPPESASLGTAGLFTRKAPPAQAFRGDGGPRMLSGPERLGPGPAHPSHMASQMPPPDHGDWTFEEQFKQLYELDADPKRKEFLDDLFSFMQKRGTPVNRIPIMAKQVLDLFMLYVLVTEKGGLVEVINKKLWREITKGLNLPTSITSAAFTLRTQYMKYLYPYECERRGLSSPNELQAAIDSNRREGRRQSFGGSLFAYSPSGAHSMLPSPKLPVTPLGLAASTNGSSITPAPKIKKEEDSAIPITVPGRLPVSLAGHPVVAAQAAAVQAAAAQAAVAAQAAALEQLREKLESTEPPEKKMALVADEQQRLMQRAVQQSFLAMTAQLPMNIRINSQASESRQDSAVSLTSANGSNSISMSVEMNGIVYTGVLFAQPPPPTAPSAPGKGGVSSIGTNTTTGSRTGASGSTVSGGQVGLPGVSTPTMSSTSNNSLP
notes: range 1-601; Untagged protein, tested in three forms: expressed in CHO cells, in vitro translated, or endogenous in the mouse B cell lines BCg3R-1d and M12g3Ri; Found as a dimer in solution by size exclusion chromatography; also called native Bright; wild-type Bright

What was measured:
[1] = target: mouse Bright, wild-type, C-terminal myc-his tagged (mouse) (UniProt Q62431); assay: cell-based or functional assay
[2] = target: T1, mouse Bright, native (untagged) wild-type (mouse); assay: cell-based or functional assay
[3] = target: the molecule itself; assay: size exclusion chromatography of nuclear extracts, western blot of fractions
Method: (§1) FIGS. 11A-B—Tagged Bright proteins dimerize with native Bright. (FIG. 11A) Nuclear extracts from cells expressing Bright protein were subjected to size exclusion chromatography and protein fractions were analyzed for Bright by western blotting (lower panel). Data are presented graphically relative to molecular weight standards in the upper panel and are representative of four experiments. (FIG. 11B) C-terminal myc-his tagged Bright was either singly or coexpressed in CHO cells with native Bright. […] Immunoprecipitations using anti-myc Ab (middle panel) and anti-Sp1 as an isotype control (bottom panel) were performed with each of the transfected extracts and developed with anti-Bright reagents. Arrows indicate immunoglobulin heavy chain cross-reactive with the secondary reagent. Data are representative of two separate experiments.
Column chromatography. Nuclear extracts from CHO cells transfected with the full-length Bright expression plasmid (Herrscher et al., 1995) were centrifuged at 10,000×g to remove aggregates and applied to a pre-calibrated Bio-Gel A 0.5 m size exclusion column (Bio-Rad, Hercules, Calif.) in 0.05 M Tris-HCl, pH 8.0, 0.1 M KCl and 20% glycerol according to the manufacturer's directions. The column was calibrated before and after use with Bio-Rad gel filtration standards to ensure maintenance of column integrity. […]

[4] = target: B1; assay: co-expression in CHO cells, anti-myc immunoprecipitation, anti-Bright blot
Method: as §1
To determine if the mutated proteins formed heterodimers with wild-type Bright, his-myc-tagged mutant forms of Bright were co-expressed in CHO cells with native wild-type Bright. Tagged proteins were distinguished from native Bright by the slight size differences in western blots (FIG. 11B) and were confirmed using anti-tag antibodies (not shown). Anti-myc antibodies were used to immunoprecipitate the tagged proteins and blots were developed with anti-Bright (FIG. 11B). In every case, a lower molecular weight band was detected that reflected the presence of native Bright.

[5] = target: human Btk, endogenous in the B cell lines CL01 and 300212 (human, UniProt Q06187 2-659); assay: EMSA supershift with anti-Btk, nuclear extracts of CL01 and 300212 cells
Method: FIG. 7—Btk associates with Bright in a subset of DNA-bound complexes. Mobility-shift assays were performed with nuclear extracts from two B cell lines (CL01 and 300212) and the T cell line, Molt-4. Anti-sera to CDP or the pleckstrin domain of Btk was added as in FIG. 2A-D. In some cases the anti-Btk sera was diluted 1:10 with PBS (0.1) prior to addition. Data are representative of six experiments.
Electrophoretic mobility shift assays (EMSAs). Nuclear extracts were prepared by hypotonic lysis, protein concentrations were quantified with Bradford reagents (BioRad, Richmond, Calif.), and EMSAs were performed in 4% nondenaturing acrylamide gels after incubation for 15 min at 37° C. with gamma-³²P-labeled probe, as previously described (Buchanan et al., 1995). The prototypic Bright binding site (a 150 base pair Bam HI-Fok I fragment called bf150) from the S107 V1 5′ flanking sequence (Webb et al., 1991) was used as a probe. In some instances, antibodies were added 5 min before incubation with the probe. […] A double-stranded oligo containing the 45 base pair foot-printed Bright binding site within bf150 described in Webb et al. (1991) was used as a specific competitor in increasing concentrations and a mutated version of that oligonucleotide containing the double-stranded sequence corresponding to 5′-[…]-3′ (SEQ ID NO:6) was used as a non-specific competitor. […]

human Btk, endogenous in the B cell lines CL01 and 300212, sequence (Q06187 2-659 limits assumed): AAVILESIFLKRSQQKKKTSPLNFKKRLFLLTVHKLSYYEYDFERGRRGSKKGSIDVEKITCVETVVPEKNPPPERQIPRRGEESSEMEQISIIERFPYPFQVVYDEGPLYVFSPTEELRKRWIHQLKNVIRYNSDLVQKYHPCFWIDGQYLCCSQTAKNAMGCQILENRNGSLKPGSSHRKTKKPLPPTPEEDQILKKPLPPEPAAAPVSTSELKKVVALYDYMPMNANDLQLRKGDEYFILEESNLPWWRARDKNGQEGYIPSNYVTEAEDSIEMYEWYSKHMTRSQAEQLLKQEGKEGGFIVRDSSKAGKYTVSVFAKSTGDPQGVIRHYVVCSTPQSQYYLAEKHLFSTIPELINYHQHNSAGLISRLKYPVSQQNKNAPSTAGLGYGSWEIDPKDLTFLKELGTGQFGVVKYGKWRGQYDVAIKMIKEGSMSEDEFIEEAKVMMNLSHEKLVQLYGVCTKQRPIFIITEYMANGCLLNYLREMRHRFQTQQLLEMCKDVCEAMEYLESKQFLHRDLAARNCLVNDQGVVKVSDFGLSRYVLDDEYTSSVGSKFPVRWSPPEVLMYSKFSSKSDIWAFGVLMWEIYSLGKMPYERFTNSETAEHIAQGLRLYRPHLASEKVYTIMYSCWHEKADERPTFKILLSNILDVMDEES

Molecule | binding result [4] | further results
Btk xid mutant (R28C) (enzyme) |  | V1 transcription relative to wild-type Btk (Real Time PCR, CHO cells) [1]: 50%
Bruton's tyrosine kinase (Btk), wild-type, ectopically expressed or recombinant (enzyme) |  | Bright DNA-binding activity remaining after competitor DNA (EMSA, in vitro translated Bright plus recombinant Btk) [2]: < 50 % reduction
B1 |  | binding result [3]: binds
mouse Bright double point mutant (W299A and Y330A), C-terminal myc-his tagged (other, UniProt Q62431 1-601, looked up, range 1-601; also called DP; DP Bright; not shown: C-terminal myc-his tag from vector pcDNA4/TO/myc-His B) MKLQAVMETLIQRQQRARQELEARQAPPPPPPEPTGVRARTTMTDEDREPENARMHRTQMAALAAMRAAAAGLGHPSSPGGSEDGPPISGDEDTAREGTLSSPALHGSVLEGAGHAEGDRHLMDVGSDDDDTKSKWEEQELEELGEEEEEEEEEDDFEEEEEEEEGLGPPESASLGTAGLFTRKAPPAQAFRGDGGPRMLSGPERLGPGPAHPSHMASQMPPPDHGDWTFEEQFKQLYELDADPKRKEFLDDLFSFMQKRGTPVNRIPIMAKQVLDLFMLYVLVTEKGGLVEVINKKLAREITKGLNLPTSITSAAFTLRTQYMKYLYPAECERRGLSSPNELQAAIDSNRREGRRQSFGGSLFAYSPSGAHSMLPSPKLPVTPLGLAASTNGSSITPAPKIKKEEDSAIPITVPGRLPVSLAGHPVVAAQAAAVQAAAAQAAVAAQAAALEQLREKLESTEPPEKKMALVADEQQRLMQRAVQQSFLAMTAQLPMNIRINSQASESRQDSAVSLTSANGSNSISMSVEMNGIVYTGVLFAQPPPPTAPSAPGKGGVSSIGTNTTTGSRTGASGSTVSGGQVGLPGVSTPTMSSTSNNSLP | binds | 
mouse Bright F317A, C-terminal myc-his tagged (other, UniProt Q62431 1-601, looked up, range 1-601; not shown: C-terminal myc-his tag from vector pcDNA4/TO/myc-His B) MKLQAVMETLIQRQQRARQELEARQAPPPPPPEPTGVRARTTMTDEDREPENARMHRTQMAALAAMRAAAAGLGHPSSPGGSEDGPPISGDEDTAREGTLSSPALHGSVLEGAGHAEGDRHLMDVGSDDDDTKSKWEEQELEELGEEEEEEEEEDDFEEEEEEEEGLGPPESASLGTAGLFTRKAPPAQAFRGDGGPRMLSGPERLGPGPAHPSHMASQMPPPDHGDWTFEEQFKQLYELDADPKRKEFLDDLFSFMQKRGTPVNRIPIMAKQVLDLFMLYVLVTEKGGLVEVINKKLWREITKGLNLPTSITSAAATLRTQYMKYLYPYECERRGLSSPNELQAAIDSNRREGRRQSFGGSLFAYSPSGAHSMLPSPKLPVTPLGLAASTNGSSITPAPKIKKEEDSAIPITVPGRLPVSLAGHPVVAAQAAAVQAAAAQAAVAAQAAALEQLREKLESTEPPEKKMALVADEQQRLMQRAVQQSFLAMTAQLPMNIRINSQASESRQDSAVSLTSANGSNSISMSVEMNGIVYTGVLFAQPPPPTAPSAPGKGGVSSIGTNTTTGSRTGASGSTVSGGQVGLPGVSTPTMSSTSNNSLP | binds | 
mouse Bright Y330A, C-terminal myc-his tagged (other, UniProt Q62431 1-601, looked up, range 1-601; not shown: C-terminal myc-his tag from vector pcDNA4/TO/myc-His B) MKLQAVMETLIQRQQRARQELEARQAPPPPPPEPTGVRARTTMTDEDREPENARMHRTQMAALAAMRAAAAGLGHPSSPGGSEDGPPISGDEDTAREGTLSSPALHGSVLEGAGHAEGDRHLMDVGSDDDDTKSKWEEQELEELGEEEEEEEEEDDFEEEEEEEEGLGPPESASLGTAGLFTRKAPPAQAFRGDGGPRMLSGPERLGPGPAHPSHMASQMPPPDHGDWTFEEQFKQLYELDADPKRKEFLDDLFSFMQKRGTPVNRIPIMAKQVLDLFMLYVLVTEKGGLVEVINKKLWREITKGLNLPTSITSAAFTLRTQYMKYLYPAECERRGLSSPNELQAAIDSNRREGRRQSFGGSLFAYSPSGAHSMLPSPKLPVTPLGLAASTNGSSITPAPKIKKEEDSAIPITVPGRLPVSLAGHPVVAAQAAAVQAAAAQAAVAAQAAALEQLREKLESTEPPEKKMALVADEQQRLMQRAVQQSFLAMTAQLPMNIRINSQASESRQDSAVSLTSANGSNSISMSVEMNGIVYTGVLFAQPPPPTAPSAPGKGGVSSIGTNTTTGSRTGASGSTVSGGQVGLPGVSTPTMSSTSNNSLP | binds | 
mouse Bright W299A, C-terminal myc-his tagged (other, UniProt Q62431 1-601, looked up, range 1-601; not shown: C-terminal myc-his tag from vector pcDNA4/TO/myc-His B) MKLQAVMETLIQRQQRARQELEARQAPPPPPPEPTGVRARTTMTDEDREPENARMHRTQMAALAAMRAAAAGLGHPSSPGGSEDGPPISGDEDTAREGTLSSPALHGSVLEGAGHAEGDRHLMDVGSDDDDTKSKWEEQELEELGEEEEEEEEEDDFEEEEEEEEGLGPPESASLGTAGLFTRKAPPAQAFRGDGGPRMLSGPERLGPGPAHPSHMASQMPPPDHGDWTFEEQFKQLYELDADPKRKEFLDDLFSFMQKRGTPVNRIPIMAKQVLDLFMLYVLVTEKGGLVEVINKKLAREITKGLNLPTSITSAAFTLRTQYMKYLYPYECERRGLSSPNELQAAIDSNRREGRRQSFGGSLFAYSPSGAHSMLPSPKLPVTPLGLAASTNGSSITPAPKIKKEEDSAIPITVPGRLPVSLAGHPVVAAQAAAVQAAAAQAAVAAQAAALEQLREKLESTEPPEKKMALVADEQQRLMQRAVQQSFLAMTAQLPMNIRINSQASESRQDSAVSLTSANGSNSISMSVEMNGIVYTGVLFAQPPPPTAPSAPGKGGVSSIGTNTTTGSRTGASGSTVSGGQVGLPGVSTPTMSSTSNNSLP | binds | 
human Bright (B cell regulator of IgH transcription) (other, Transcription factor; Tested as in vitro translated protein from a full-length clone, and as endogenous protein in nuclear extracts of the human cell lines CL01, K562 and 300212; also called Dril 1; DRIL1) MKLQAVMETLLQRQQRARQELEARQQLPPDPPAAPPGRARAAPDEDREPESARMQRAQMAALAAMRAAAAGLGHPASPGGSEDGPPGSEEEDAAREGTPGSPGRGREGPGEEHFEDMASDEDMKPKWEEEEMEEDLGEDEEEEEEDYEDEEEEEDEEGLGPPGPASLGTTALFPRKAQPPQAFRGDGVPRVLGGQERPGPGPAHPGGAAHVAPQLQPPDHGDWTYEEQFKQLYELDGDPKRKEFLDDLFSFMQKRGTPVNRIPIMAKQVLDLFMLYVLVTEKGGLVEVINKKLWREITKGLNLPTSITSAAFTLRTQYMKYLYPYECEKRGLSNPNELQAAIDSNRREGRRQSFGGSLFAYSPGGAHGMLSSPKLPVSSLGLAASTNGSSITPAPKIKKEEDSAIPITVPGRLPVSLAGHPVVAAQAAAVQAAAAQAAVAAQAAALEQLREKLESAEPPEKKMALVADEQQRLMQRALQQNFLAMAAQLPMSIRINSQASESRQDSAVNLTGTNGSNSISMSVEINGIMYTGVLFAQPPAPTPTSAPNKGGGGGGGSSSNAGGRGGNTGTSGGQAGPAGLSTPSTSTSNNSLP |  | binding result [5]: binds
